PMC4520771 (Journal of structural biology, 2015)

Molecular target: the molecule itself
Test: SEC

B1: EspB_(1-338), N-terminal EspB fragment (domain or fragment)
chain: MTQSQTVTVDQQEILNRANEVEAPMADPPTDVPITPCELTAAKNAAQQLVLSADNMREYLAAGAKERQRLATSLRNAAKAYGEVDEEAATALDNDGEGTVQAESAGAVGGDSSAELTDTPRVATAGEPNFMDLKEAARKLETGDQGASLAHFADGWNTFNLTLQGDVKRFRGFDNWEGDAATACEASLDQQRQWILHMAKLSAAMAKQAQYVAQLHVWARREHPTYEDIVGLERLYAENPSARDQILPVYAEYQQRSEKVLTEYNNKAALEPVNPPKPPPAIKIDPPPPPQEQGLIPGFLMPPSDGSGVTPGTGMPAAPMVPPTGSPGGGLPADTAAQ
Question: Does B1 bind?
Answer: Result: binds
